# B1: GST-p12_WT: N-terminally GST-tagged Mo-MLV p12 (protein)
# chain: PALTPSLGAKPKPQVLSDSGGPLIDLLTEDPPPYRDPRPPPSDRDGNGGEATPAGEAPDPSPMASRLRGRREPPVADSTTSQAF
# modifications: left off: GST, N-terminal, kept
# notes: N-terminally GST-tagged Mo-MLV p12
# Assays:
# [1] = tested on: GST-p12 phosphorylation in 293T cells; test: nano LC-MS/MS phosphopeptide identification of GST-p12; format: cell-based
# From the text: We next used nanoscale liquid chromatography coupled to tandem mass spectrometry (nano LC–MS/MS) to identify phosphopeptides of GST-p12_WT precipitated from 293T cells. The phosphorylation sites in the high confidence tryptic-peptides (<1% false discovery rate, FDR) were assigned using the probability-based phosphoRS algorithm (Table 1). A peptide was counted as being phosphorylated at a specific residue if its phosphoRS site probability was >50%. For each tryptic peptide, the phosphorylation level at a particular site was estimated by dividing the phosphorylated peptide count by the total peptide count. This analysis, carried out with two biological replicates, confirmed S61 to be the main site of phosphorylation on GST-p12_WT, with ~45% of S61-containing peptides phosphorylated at this residue (Table 1). We also identified T52, S65, S78, T80 and S81 as additional sites of low-level phosphorylation on p12 (Table 1). […] The absence of a detectable association between GST-p12 and mitotic chromatin is therefore unlikely to result from a lack of phosphorylation of recombinant p12.
# To identify phosphopeptides of GST-p12, bead eluates were separated by SDS-PAGE and stained using SimplyBlue safe stain (Thermo Fisher Scientific). The band corresponding to GST-p12 was then excised and submitted for nano-LC-MS/MS analysis as described in [54], but without phosphopeptides enrichment. The probability-based phosphoRS algorithm was used for assigning phosphorylation sites in the detected peptides.
# [2] = tested on: cellular proteins of mitotic 293T cells; test: SILAC-MS of GST-p12_WT relative to GST-p12_mut14; format: binding; conditions: log2(H/M) >2.58 SDs from mean in both replicates
# Experimental: For SILAC-MS experiments, 293T cells were grown is media containing light (R0K0, ^12C-Arginine and ^12C-Lysine), medium (R6K4, ^13C-Arginine and Lysine-4,4,5,5-d4) or heavy (R10K8, ^13C+^15N-Arginine and ^13C+^15N-Lysine) versions of L-Arginine and L-Lysine amino acids (Pierce) for a minimum of 6 doublings before transient expression of GST-p12 proteins. After performing the glutathione-sepharose pull-down assays equivalent volumes of the beads eluates were pooled and submitted to the Bristol University Proteomics Facility for RP nano-LC-MS/MS analysis. This analysis was performed on an LTQ-Orbitrap Velos mass spectrometer in line with a Dionex Ultimate 3000 nanoHPLC system as described in [53].
# Supplementary file ppat.1007117.s002.tif: S2 Fig SILAC results showing no significant difference in protein complexes of Mo-MLV GST-p12_mut14 compared to GST-p12_WT. (Links to Fig 4). GST, Mo-MLV GST-p12_mut14 or GST-p12_WT were transiently-expressed in 293T cells cultured in light (L), medium (M) or heavy (H) SILAC media, respectively. GST-protein complexes were precipitated from mitotic cell lysates and analysed by LC-MS/MS. (A) To identify proteins enriched in the GST-p12_WT (H) sample relative to the GST-p12_mut14 (M) sample, log2(H/M) silac ratios of each set of MS hits (FDR <5%) from replicates (R1 and R2) were plotted as a frequency distribution. […]
# [3] = tested on: GST-p12 phosphorylation in 293T cells; test: GST-p12 phosphorylation by ProQ diamond / Sypro ruby staining; format: cell-based; conditions: PQ/SR ratio, 3 technical replicates; "at least"
# Experimental: Firstly, GST-p12 pulled-down from mitotic cell lysates was analysed by SDS-PAGE followed by sequential staining with two fluorescent dyes, ProQ diamond (PQ) and Sypro Ruby (SR). PQ is a small molecule fluorophore that binds with high-specificity to phosphorylated proteins. SR binds all proteins and is useful as a total protein indicator. The ratio of PQ and SR dye signals provides a measure of the phosphorylation level with respect to the total amount protein. Viral p12 is known to be mainly phosphorylated at serine 61 within the CTD [19, 25]. We therefore compared the relative phosphorylation levels of GST-p12_WT with a S61A mutant. Compared to p12_S61A, p12_WT was at least 3-fold more phosphorylated (Fig 3E, lanes 2 and 3).
# GST-p12 proteins were expressed in 293T cells from pCAGGS/GST-derived plasmids by transient transfection using Turbofect (Thermo Fisher Scientific). Approximately 24 h after transfection, cells were changed into fresh media containing either 400 ng/ml nocodazole (Sigma) or 2 μg/ml aphidicolin (Sigma) and incubated overnight at 37°C. The synchronisation of the cell cultures after drug treatment was assessed by propidium iodide staining and cell cycle phase analysis by flow cytometry. […] ProQ diamond and Sypro ruby staining (Thermo Fisher Scientific) of gels was visualised and quantified on a ChemiDoc imaging system (Bio-Rad).
molecule,measurement,setting,value
B1,Fraction of phosphorylated peptides,"[1]; S61, peptide aa 36–66, 1 missed cleavage, replicate R1",0.47
same,Fraction of phosphorylated peptides,"[1]; S61, peptide aa 36–66, 1 missed cleavage, replicate R2",0.52
same,Fraction of phosphorylated peptides,"[1]; S61, peptide aa 45–66, 0 missed cleavages, replicate R1",0.36
same,Fraction of phosphorylated peptides,"[1]; S61, peptide aa 45–66, 0 missed cleavages, replicate R2",0.49
same,Fraction of phosphorylated peptides,"[1]; S65, peptide aa 45–66, 0 missed cleavages, replicate R1",0.01
same,Fraction of phosphorylated peptides,"[1]; S65, peptide aa 45–66, 0 missed cleavages, replicate R2",0.07
same,Fraction of phosphorylated peptides,"[1]; S78, peptide aa 72–84+ linker, 0 missed cleavages, replicate R1",0.03
same,Fraction of phosphorylated peptides,"[1]; S78, peptide aa 72–84+ linker, 0 missed cleavages, replicate R2",0.03
same,Fraction of phosphorylated peptides,"[1]; S81, peptide aa 71–84+ linker, 1 missed cleavage, replicate R1",0.10
same,Fraction of phosphorylated peptides,"[1]; S81, peptide aa 72–84+ linker, 0 missed cleavages, replicate R1",0.03
same,Fraction of phosphorylated peptides,"[1]; S81, peptide aa 72–84+ linker, 0 missed cleavages, replicate R2",0.01
same,Fraction of phosphorylated peptides,"[1]; T52, peptide aa 45–66, 0 missed cleavages, replicate R1",0.13
same,Fraction of phosphorylated peptides,"[1]; T52, peptide aa 45–66, 0 missed cleavages, replicate R2",0.04
same,Fraction of phosphorylated peptides,"[1]; T80, peptide aa 71–84+ linker, 1 missed cleavage, replicate R1",0.04
same,Fraction of phosphorylated peptides,"[1]; T80, peptide aa 72–84+ linker, 0 missed cleavages, replicate R1",0.01
same,proteins significantly enriched vs GST-p12_mut14,[2],no proteins that passed the criteria for significant enrichment
same,phosphorylation at mitosis in comparison to interphase,[3],3–4 fold
